Numbering of substitutions follows the chain as printed. In brackets after ≈: the same amount, converted by molar mass.
B1: No.76: mouse monoclonal anti-LPS O11 antibody prepared using pJON mIgG2a and pJON mIgκ; variable regions SEQ ID NO: 8 and 4 (antibody, V domains shown)
VH: MGWSCIILFLVAAATGVHSQVQLQQPGAELVKPGASVNLSCKSSGYTFTNYWINWVKQRPGQGLEWIGDIYPGTSTTNYNEKFKNKATLTVDTSSSTAYMQLSSLTSDDSAVYYCTRIYYDYDGYYFDYWGQGTTLTVSS
VL: MESQTLVFISILLWLYGADGNIVMTQSPKSMSMSVGERVTLSCKASENVGTSVSWYQEKPEQSPKLLIFGASNRYTGVPDRFTGSGSATDFTLTISSVQAEDLADYHCGQSYSYPYTFGGRTKLEIKRA
modifications: Heavy chain variable of No.76; Light chain variable of No.76
B2: #1G5: anti-LPS O11 monoclonal antibody prepared using pJON mIgG2a-hIgG1 and pJON mIgκ; variable regions SEQ ID NO: 16 and 12 (antibody, V domains shown)
VH: MGWSCIILFLVAAATGVHSQVQLQQPGAELVKPGASVKLSCKASGYTFTSYWINWVKQRPGQGLEWIGNIYPGSSSINYNEKFKSKATLTVDTSSSTAYMQLSSLTSDDSAVYYCSRTIYNYGSSGYNYAMDYWGQGTSVIVSS
VL: B1 VL with A18S, T51N, E58Q, P60A, L66P, F69Y, R121G
modifications: Heavy chain variable of #1G5; Light chain variable of #1G5
B3: #4C12: anti-LPS O11 monoclonal antibody prepared using pJON mIgG2a-hIgG1 and pJON mIgκ; variable regions SEQ ID NO: 24 and 20 (antibody, V domains shown)
VH: MGWSCIILFLVAAATGVQSQVQLQQPGAELVKPGASVKLSCKASGYTFTTYWINWMQQRPGQGLEWIGNIYPGTRSSNYNEKFKNKATLTVDTSSSTAYMQLNSLTSDDSAVYYCTRVYYDHVGYYFDYWGQGTTLTVSS
VL: B1 VL with T51V, E58Q, F69Y, Y75C, G86R, I95V, S97N, R121G, K123R
modifications: Heavy chain variable of #4C12; Light chain variable of #4C12

How the values were obtained:
[1] = test system: Pseudomonas aeruginosa clinical isolates No. 12 and No. 31; experiment: Minimum inhibitory concentration of LVFX against clinical isolates; type: cell-based
[2] = test system: Pseudomonas aeruginosa ATCC 29260; experiment: Opsonophagocytic killing activity against Pseudomonas aeruginosa ATCC 29260; type: cell-based; details: antibody culture supernatant samples
Experimental: As a buffer for measurement, 0.1% gelatin/1% FBS/Hank's balanced salt solution (opsonization buffer) was prepared. HL60 as effector cells were cultured in 10% FBS-containing RPMI 1640 (Invitrogen) supplemented with 0.8% N,N-dimethylformamide for 5 or 6 days to prepare neutrophil-like, differentiated HL60 in an opsonization buffer. As the target bacteria, Pseudomonas aeruginosa ATCC 29260 cultured on MHA was prepared by suspending it in the opsonization buffer. As a complement, Baby Rabbit Serum (Cederlane) was prepared by dissolving it with ice-cold distilled water. Bacterial suspension (final concentration of 2×10^4 cells/ml) was mixed with antibody culture supernatant or purified antibody, allowed to stand at 4° C. for 30 minutes, and the prepared neutrophil-like, differentiated HL60 cells (final concentration of 4×10^6 cells/ml) and a complement (final concentration 10%) were added thereto, followed by incubation with gentle agitation at 37° C. for 1 hour under 5% CO2. After the incubation, each sample was spread on MHA, and colonies were counted on the next day.
Opsonophagocytic killing activity of each of cNo.76, c#1G5M, c#1G5, c#4C13KM, c#4C13, Meiji 1640, Meiji 1656, and 1BO11 hIgG1 against Pseudomonas aeruginosa ATCC 29260 was measured in accordance with the method of 1)-3-2. The opsonophagocytic killing activity was expressed in terms of 50% minimum growth inhibitory concentration.
In accordance with the method of 1)-3-2, the opsonophagocytic killing activities of h#1G5-H2/L2, h#1G5-H3/L3, h#4C13K-H2/L2, and h#4C13k-H3/L3 against ATCC 29260 were measured, and then compared to those of c#1G5 and c#4C13. The opsonophagocytic killing activity was expressed in terms of 50% minimum growth inhibitory concentration.

| Molecule | MIC ([1]; No. 12 strain) | MIC ([1]; strain No. 31) | opsonophagocytic killing activity in screening [2] |
| --- | --- | --- | --- |
| C[C@H]1COc2c(N3CCN(C)CC3)c(F)cc3c(=O)c(C(=O)O)cn1c23 [LVFX, levofloxacin] | > 128 µg/mL | 32 µg/mL (≈ 88.6 µM) | – |
| B1 | – | – | strong opsonophagocytic killing activity |
| B2 | – | – | strong opsonophagocytic killing activity |
| B3 | – | – | strong opsonophagocytic killing activity |

From patent publication US9951123B2, “Anti-LPS O11 antibody” (priority 2013, dated 2018)
